Assay results reported in patent CN113698481A (SUZHOU CENTERGENE PHARMACEUTICALS CO LTD, dated 2021).
Where a chain is given by its changes, count along the chain named. Values belong to the binder of their own block, whether it stands above or below them.

Target: T1, 人绒毛膜促性腺激素(HCG) (human, UniProt P0DN86 21-165)
T1 construct: Alpha/beta heterodimer coated on ELISA plates; The source of the HCG preparation is lost from the text (gap after 'HCG |'); also called HCG抗原
Experiment: ELISA, HCG coated at 2 μg/ml, VHH detected with anti-6xHis-HRP, 4-parameter fit

T1 sequence (chain, as listed by the source, chain 1 of 2, other chains not shown): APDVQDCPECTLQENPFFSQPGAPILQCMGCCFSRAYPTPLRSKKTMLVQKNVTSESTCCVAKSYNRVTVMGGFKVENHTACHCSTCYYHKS

EC50: 0.0259 µg/mL
B1: SEQ ID NO 3 (VHH)
VHH: QVQVAESGGGLVQSGGSMNLSCTASGNLFSVDAMGWFRQAPGEEREAVAAIMWSGDSTYYANAVKGRFTISRDNAKNTVYLQMNSLKPEDTAVYYCAARLQEEGWWDYWGQGTQVTVSS
notes: Expressed in E. coli, nickel column purified; Only the CDRs are printed; also called 蛋白3

EC50: 0.0138 µg/mL
B2: SEQ ID NO 6 (VHH)
VHH: B1 VHH with A5V, S14P, M18L, N19R, T23A, N27R, L28T, F29V, V31S, D32H
notes: Expressed in E. coli, nickel column purified; Only the CDRs are printed; also called 蛋白6

EC50: 0.014 µg/mL
B3: SEQ ID NO 7 (VHH)
VHH: QVQLVESGGGLVQAGGSLRLSCVASGRTFSSYDMGWFRQAPGEEREAVAAINWSGGSTYYADSVKGRFTISSDNAKNTVYLQMNNLKPEDTAVYYCAARQVPGWWDYWGQGTQVTVSS
notes: Expressed in E. coli, nickel column purified; Only the CDRs are printed; also called 蛋白7

EC50: 0.00505 µg/mL
B4: SEQ ID NO 4 (VHH)
VHH: QVRLVESGGGLVQPGGSLRLSCTASGGTFDRYNVAWFRQAPGEEREAVASIMWSGDNTYYANSVKGRFTISRDNAKNTVYLQMNSLKPEDTAVYYCAARIQEQGWWDYWGQGTQVTVSS
notes: Expressed in E. coli, nickel column purified; Only the CDRs are printed; also called 蛋白4

EC50: 0.00946 µg/mL
B5: SEQ ID NO 5 (VHH)
VHH: QVQLVESGGGLAQAGGSLRLSCAASGRTASGYAMGWFRQAPGKEREAVAAIMWSGGSTYYADSVKGRFTISRDNAKNTVYLQMNSLKTEDTAVYYCAARTDGSGWWDYWGQGTQVTVSS
notes: Expressed in E. coli, nickel column purified; Only the CDRs are printed; also called 蛋白5
